Article PMC10465003, “The AAA-ATPase Yta4/ATAD1 interacts with the mitochondrial divisome to inhibit mitochondrial fission” (PLOS Biology, 2023)

B2: Dnm1 (enzyme, Schizosaccharomyces pombe, UniProt Q09748 1-781, looked up)
chain: MEQLIPLVNQLQDLVYNTIGSDFLDLPSIVVVGSQSCGKSSVLENIVGKDFLPRGTGIVTRRPLILQLINLKRKTKNNHDEESTSDNNSEETSAAGETGSLEGIEEDSDEIEDYAEFLHIPDTKFTDMNKVRAEIENETLRVAGANKGINKLPINLKIYSTRVLNLTLIDLPGLTKIPVGDQPTDIEAQTRSLIMEYISRPNSIILAVSPANFDIVNSEGLKLARSVDPKGKRTIGVLTKLDLMDQGTNAMDILSGRVYPLKLGFVATVNRSQSDIVSHKSMRDALQSERSFFEHHPAYRTIKDRCGTPYLAKTLSNLLVSHIRERLPDIKARLSTLISQTQQQLNNYGDFKLSDQSQRGIILLQAMNRFANTFIASIDGNSSNIPTKELSGGARLYSIFNNVFTTALNSIDPLQNLSTVDIRTAILNSTGSRATLFLSEMAFDILVKPQLNLLAAPCHQCVELVYEELMKICHYSGDSDISHFPKLQTALVETVSDLLRENLTPTYSFVESLIAIQSAYINTNHPDFLGVQGAMAVVLSRKEQNRLMLSQENDEPISSALDTVKPDGIELYSSDPDTSVKSITNKATNEITTLKSDDSAKMQPLDVLASKRYNNAFSTETAERKTFLSYVFGANNATRKAMSIDKSSSYPLNDSLSGGDTNHKNNHPLKMTDLSNEVETMALEDMSEREEVEVDLIKELITSYFNLTRKIIIDQVPKVIMHLLVNASKDAIQNRLVSKLYREDFFDTLLIEDENVKSEREKCERLLSVYNQANKIISTVF
notes: Dnm1, fission yeast dynamin-related GTPase; also called Dnm1(WT); recombinant Dnm1; source: E. coli Rosseta, purified (Ni-NTA, sumo protease, size-exclusion chromatography); not shown: His-sumo, N-terminal, cleaved

Columns and labels:
[1] = target: GST-Mdv1(319–651) (Schizosaccharomyces pombe) (UniProt Q9P7I3); assay: pull-down; competitive binding: GST-Mdv1(a.a. 319–651) on glutathione resins incubated with Dnm1 or Dnm1(G380D), with or without His-Yta4(a.a 33–355); band intensities quantified
[2] = target: B2
[3] = target: Hcp1-Msp1(a.a. 36–362) (not stated | budding yeast (Saccharomyces cerevisiae)) (UniProt P28737); assay: SEC + cross-linking; Superdex 200 Increase 10/300 GL in hypersaline buffer (500 mM NaCl, 500 mM KCl, 1 mM ATP, pH 7.5); EGS 4 mM, 300 ng/μL protein, 30 min at room temperature, SDS-PAGE with silver staining
[4] = target: Hcp1-Yta4(a.a. 35–355) (not stated | Schizosaccharomyces pombe); assay: as above
[5] = target: T1, GST-Mdv1(a.a. 1–249) (Schizosaccharomyces pombe (strain 972 / …, UniProt Q9P7I3)); assay: GST pull-down
T1 chain: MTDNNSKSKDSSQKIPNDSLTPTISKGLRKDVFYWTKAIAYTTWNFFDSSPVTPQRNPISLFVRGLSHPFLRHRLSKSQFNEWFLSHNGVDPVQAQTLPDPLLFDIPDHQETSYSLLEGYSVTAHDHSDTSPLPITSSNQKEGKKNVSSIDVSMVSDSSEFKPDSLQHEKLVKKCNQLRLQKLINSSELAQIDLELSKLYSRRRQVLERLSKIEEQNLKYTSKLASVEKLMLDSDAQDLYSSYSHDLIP

[6] = target: T2, GST-Mdv1(a.a. 1–249) (Schizosaccharomyces pombe, UniProt Q9P7I3 1-249); assay: pull-down; competitive binding: GST-Mdv1(a.a. 1–249) on glutathione resins incubated with His-Fis1(a.a. 1–128), with or without His-Yta4(a.a 33–355) (Mdv1 to Yta4 1:1, 1:5, 1:10); details: both partners purified
T2 construct: Mdv1, S. pombe, residues 1-249, the N-terminus; also called GST-Mdv1(NT); not shown: GST, N-terminal, kept
T2 sequence (looked up): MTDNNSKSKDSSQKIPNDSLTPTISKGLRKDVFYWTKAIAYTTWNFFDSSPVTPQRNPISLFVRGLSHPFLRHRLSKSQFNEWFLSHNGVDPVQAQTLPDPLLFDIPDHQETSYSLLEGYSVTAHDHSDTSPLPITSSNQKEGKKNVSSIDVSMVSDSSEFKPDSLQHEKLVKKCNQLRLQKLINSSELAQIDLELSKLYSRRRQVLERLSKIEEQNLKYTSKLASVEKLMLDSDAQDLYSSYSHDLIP

[7] = substrate: Nc1nc2c(ncn2[C@@H]2O[C@H](COP(=O)(O)OP(=O)(O)OP(=O)(O)O)[C@@H](O)[C@H]2O)c(=O)[nH]1; assay: malachite green phosphate release, Michaelis-Menten fit; type: biochemical, Schizosaccharomyces pombe; details: pH 7.5, 37°C
[8] = target: the molecule itself; assay: co-sedimentation; velocity sedimentation: 2 μM Dnm1 with 0, 5, 50 or 100 μM GMP-PCP, with or without 40 μM His-Yta4; 20 min at 37°C, 10,000 g 15 min at 4°C; supernatant and pellet on SDS-PAGE
[9] = target: B2; assay: pull-down; competitive binding: GST-Mdv1(a.a. 319–651) on glutathione resins incubated with Dnm1 or Dnm1(G380D), with or without His-Yta4(a.a 33–355); band intensities quantified; details: both partners purified
[10] = target: T3, Dnm1(G380D) (Schizosaccharomyces pombe, UniProt Q09748 1-781, G380D); assay: as above; details: both partners purified
T3 construct: Dnm1, fission yeast dynamin-related GTPase, with G380D (corresponds to G385D of S. cerevisiae Dnm1); Removal of His-sumo is stated for His-sumo-Dnm1 only; also called assembly-defective mutant of Dnm1; source: E. coli Rosseta, expressed as His-sumo-Dnm1(G380D), purified (Ni-NTA)
T3 sequence (looked up): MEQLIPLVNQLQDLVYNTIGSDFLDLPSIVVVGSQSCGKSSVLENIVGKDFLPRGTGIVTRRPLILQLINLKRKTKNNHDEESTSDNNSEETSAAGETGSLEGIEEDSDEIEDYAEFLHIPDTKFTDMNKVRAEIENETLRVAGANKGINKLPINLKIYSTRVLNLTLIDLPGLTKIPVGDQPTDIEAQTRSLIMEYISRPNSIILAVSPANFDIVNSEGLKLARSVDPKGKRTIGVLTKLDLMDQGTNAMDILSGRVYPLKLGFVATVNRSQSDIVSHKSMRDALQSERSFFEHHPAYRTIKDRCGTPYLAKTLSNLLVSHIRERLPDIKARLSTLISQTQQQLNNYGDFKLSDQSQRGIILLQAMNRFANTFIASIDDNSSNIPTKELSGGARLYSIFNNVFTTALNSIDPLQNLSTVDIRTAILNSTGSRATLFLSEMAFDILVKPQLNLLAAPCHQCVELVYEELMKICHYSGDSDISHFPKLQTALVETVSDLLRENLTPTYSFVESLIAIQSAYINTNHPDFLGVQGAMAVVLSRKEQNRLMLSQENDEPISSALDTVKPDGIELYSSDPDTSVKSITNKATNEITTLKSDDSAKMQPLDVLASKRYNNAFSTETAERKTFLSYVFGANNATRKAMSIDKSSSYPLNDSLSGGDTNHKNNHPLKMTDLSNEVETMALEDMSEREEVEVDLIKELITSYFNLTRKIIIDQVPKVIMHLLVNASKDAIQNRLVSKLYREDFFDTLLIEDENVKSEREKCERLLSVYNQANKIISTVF

“His-Yta4(a.a. 33–355) (domain or fragment)” was tested, and the Dnm1 left on GST-Mdv1(WD) with His-Yta4(∆TM), percent of the level without it [1] was 40% and the Km for GTP of the GTPase activity of 0.5 μM Dnm1 (colorimetric assay, 37°C) with 5 μM and 10 μM His-Yta4(∆TM), fold increase over Dnm1 alone; Vmax not significantly affected [2] was 6 fold.

“Hcp1-Msp1(a.a. 36–362) (from UniProt P28737 36-362)” was tested, and the stoichiometry N [3] was 6.

Work on Hcp1-Yta4(a.a. 35–355) yielded a stoichiometry N [4] of 6.

B1: His-Fis1(1–128) (domain or fragment, Schizosaccharomyces pombe, UniProt Q9USZ8 1-128, looked up)
chain: MTEKHTLRLADPSAIDSIISVDEFLQIKEQYDAEQPLITLQTKFNLAWALVRSDSTQHVQQGLSLFCSIYKDSPERRLECLYYIALSHYKLKQYEESRRYLNMLLSKDPNSPEALKLKNRLYDAVTKE
notes: also called His-Fis1(∆TM); Fis1(∆TM); source: E. coli BL21, purified (Ni-NTA, size-exclusion chromatography); not shown: His tag, N-terminal, kept
B1: binds [5]; binds [6].

In the case of B2, the Km ([7]; 0.5 μM Dnm1 alone, Mg2+) is reported as 193.80 µM and the binding result [8] is reported as “binds”.

B3: Dnm1 (Schizosaccharomyces pombe 972h-; G380D) (protein)
chain: MEQLIPLVNQLQDLVYNTIGSDFLDLPSIVVVGSQSCGKSSVLENIVGKDFLPRGTGIVTRRPLILQLINLKRKTKNNHDEESTSDNNSEETSAAGETGSLEGIEEDSDEIEDYAEFLHIPDTKFTDMNKVRAEIENETLRVAGANKGINKLPINLKIYSTRVLNLTLIDLPGLTKIPVGDQPTDIEAQTRSLIMEYISRPNSIILAVSPANFDIVNSEGLKLARSVDPKGKRTIGVLTKLDLMDQGTNAMDILSGRVYPLKLGFVATVNRSQSDIVSHKSMRDALQSERSFFEHHPAYRTIKDRCGTPYLAKTLSNLLVSHIRERLPDIKARLSTLISQTQQQLNNYGDFKLSDQSQRGIILLQAMNRFANTFIASIDDNSSNIPTKELSGGARLYSIFNNVFTTALNSIDPLQNLSTVDIRTAILNSTGSRATLFLSEMAFDILVKPQLNLLAAPCHQCVELVYEELMKICHYSGDSDISHFPKLQTALVETVSDLLRENLTPTYSFVESLIAIQSAYINTNHPDFLGVQGAMAVVLSRKEQNRLMLSQENDEPISSALDTVKPDGIELYSSDPDTSVKSITNKATNEITTLKSDDSAKMQPLDVLASKRYNNAFSTETAERKTFLSYVFGANNATRKAMSIDKSSSYPLNDSLSGGDTNHKNNHPLKMTDLSNEVETMALEDMSEREEVEVDLIKELITSYFNLTRKIIIDQVPKVIMHLLVNASKDAIQNRLVSKLYREDFFDTLLIEDENVKSEREKCERLLSVYNQANKIISTVF
notes: Dnm1 expressed as His-sumo-Dnm1 in E. coli Rosetta; His-sumo tag removed by sumo protease; Ni-NTA and SEC; forms heterogeneous oligomers
B3 gave a Km ([7]; assembly-defective mutant, 0.5 μM, without Yta4, Mg2+) of 85.00 µM.

B4: GST-Mdv1(319–651) (domain or fragment, Schizosaccharomyces pombe, UniProt Q9P7I3 319-651, looked up)
chain: YIVGNLVKQFQAHSEYITSLDFSHPFGTLATASTDKTVKVWDMAGVVYLGSLKGHSDYVSCLAIQDSFIATGSMDTTVRLWNLDNDVLHKDNPVEESLNSPPDQPVDNATNVLTSHTAPVTALALSSDDVLITGADDKTVRQWDIVTGRCIQTLDFVWAETHDTSTSQILVSDTYKQEPFIRALDCLDAAVASGTVDGLIRIWDLRIGLPVRSFIGHTAPISSLQFDSNHLYSGSYDNSVRIWDLRSGSPINIIPMEKKVNSLRLYQGRLAVASDEPNVRIFDTVSNRNWICSIPSHSDSIAAEPNSVPTSVQYKDRFLVDGKSDGSVSVFSA
notes: also called GST-Mdv1(WD); Mdv1(WD); source: E. coli BL21, purified (Glutathione Sepharose 4B resins); not shown: GST, N-terminal, kept
B4: binds [9]; binds [10].
